In paper PMC7010908:
One block for each binder: values may come before it.

What was measured:
Conditions in all cases: remark: other sources report otherwise
[1] = molecular target: T1, Native pentameric human C-reactive protein (Scripps) (human), P02741; experiment: SEC; HiLoad 16/60 Superdex 200 pg, elution buffer B (50 mM tris, 150 mM NaCl, pH 7.2), 0.5 ml/min; pCRP after storage in 20 mM tris, 280 mM NaCl, 1 mM EDTA with 2, 2.5, 3 or 4 M urea at 4°C, 10 weeks
T1 chain: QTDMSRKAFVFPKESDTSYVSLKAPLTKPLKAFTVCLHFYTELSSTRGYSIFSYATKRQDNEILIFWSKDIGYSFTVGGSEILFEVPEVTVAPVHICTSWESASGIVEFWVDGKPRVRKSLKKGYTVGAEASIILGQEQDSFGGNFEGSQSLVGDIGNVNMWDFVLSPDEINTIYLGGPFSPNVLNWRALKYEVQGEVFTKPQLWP

[2] = molecular target: T2, C-reactive protein purified from human serum of patients with raised CRP levels (>100 mg/L) (human (endogenous in patient serum)), P02741; experiment: SEC; HiLoad 16/60 Superdex 200 pg, elution with buffer A (5 mM CaCl2), 0.5 ml/min; serum CRP first purified by PCho affinity chromatography and eluted with EDTA
T2 chain: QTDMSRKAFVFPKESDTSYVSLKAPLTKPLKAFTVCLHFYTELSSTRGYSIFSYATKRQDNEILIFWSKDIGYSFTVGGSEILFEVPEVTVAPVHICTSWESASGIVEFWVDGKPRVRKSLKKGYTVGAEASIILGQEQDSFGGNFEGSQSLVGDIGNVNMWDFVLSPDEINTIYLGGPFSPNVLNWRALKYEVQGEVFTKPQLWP

[3] = molecular target: T3, Commercially sourced native C-reactive protein (Binding Site) (human), P02741; experiment: SEC; size exclusion FPLC (recalibrated after a change of column), 0.5 ml/min; 500 μg and 100 μg of PCho affinity purified CRP loaded; fractions at the mCRP position tested by ELISA
T3 chain: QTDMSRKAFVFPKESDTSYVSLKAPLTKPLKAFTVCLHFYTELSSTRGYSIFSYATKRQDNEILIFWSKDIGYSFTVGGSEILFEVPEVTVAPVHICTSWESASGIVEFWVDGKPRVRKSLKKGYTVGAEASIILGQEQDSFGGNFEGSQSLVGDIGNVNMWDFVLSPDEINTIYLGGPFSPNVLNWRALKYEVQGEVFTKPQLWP

- stoichiometry N [1]: 5
B1: Native pentameric human C-reactive protein (Scripps), P02741 19-224 (natural protein)
chain: QTDMSRKAFVFPKESDTSYVSLKAPLTKPLKAFTVCLHFYTELSSTRGYSIFSYATKRQDNEILIFWSKDIGYSFTVGGSEILFEVPEVTVAPVHICTSWESASGIVEFWVDGKPRVRKSLKKGYTVGAEASIILGQEQDSFGGNFEGSQSLVGDIGNVNMWDFVLSPDEINTIYLGGPFSPNVLNWRALKYEVQGEVFTKPQLWP

- stoichiometry N [2]: 5
B2: C-reactive protein purified from human serum of patients with raised CRP levels (>100 mg/L), P02741 19-224 (natural protein)
chain: QTDMSRKAFVFPKESDTSYVSLKAPLTKPLKAFTVCLHFYTELSSTRGYSIFSYATKRQDNEILIFWSKDIGYSFTVGGSEILFEVPEVTVAPVHICTSWESASGIVEFWVDGKPRVRKSLKKGYTVGAEASIILGQEQDSFGGNFEGSQSLVGDIGNVNMWDFVLSPDEINTIYLGGPFSPNVLNWRALKYEVQGEVFTKPQLWP

- stoichiometry N [3]: 5
B3: Commercially sourced native C-reactive protein (Binding Site), P02741 19-224 (natural protein)
chain: QTDMSRKAFVFPKESDTSYVSLKAPLTKPLKAFTVCLHFYTELSSTRGYSIFSYATKRQDNEILIFWSKDIGYSFTVGGSEILFEVPEVTVAPVHICTSWESASGIVEFWVDGKPRVRKSLKKGYTVGAEASIILGQEQDSFGGNFEGSQSLVGDIGNVNMWDFVLSPDEINTIYLGGPFSPNVLNWRALKYEVQGEVFTKPQLWP
